One molecule from patent publication US20210214414A1 (Pfizer, published 2021) can be followed below.

This assay has as its target T1, Rat SLIT3-N (rat, UniProt O88280 34-1119, limits assumed).
T1 construct: domain: SLIT3-N; d2-labelled in the HTRF assay
T1 sequence (looked up): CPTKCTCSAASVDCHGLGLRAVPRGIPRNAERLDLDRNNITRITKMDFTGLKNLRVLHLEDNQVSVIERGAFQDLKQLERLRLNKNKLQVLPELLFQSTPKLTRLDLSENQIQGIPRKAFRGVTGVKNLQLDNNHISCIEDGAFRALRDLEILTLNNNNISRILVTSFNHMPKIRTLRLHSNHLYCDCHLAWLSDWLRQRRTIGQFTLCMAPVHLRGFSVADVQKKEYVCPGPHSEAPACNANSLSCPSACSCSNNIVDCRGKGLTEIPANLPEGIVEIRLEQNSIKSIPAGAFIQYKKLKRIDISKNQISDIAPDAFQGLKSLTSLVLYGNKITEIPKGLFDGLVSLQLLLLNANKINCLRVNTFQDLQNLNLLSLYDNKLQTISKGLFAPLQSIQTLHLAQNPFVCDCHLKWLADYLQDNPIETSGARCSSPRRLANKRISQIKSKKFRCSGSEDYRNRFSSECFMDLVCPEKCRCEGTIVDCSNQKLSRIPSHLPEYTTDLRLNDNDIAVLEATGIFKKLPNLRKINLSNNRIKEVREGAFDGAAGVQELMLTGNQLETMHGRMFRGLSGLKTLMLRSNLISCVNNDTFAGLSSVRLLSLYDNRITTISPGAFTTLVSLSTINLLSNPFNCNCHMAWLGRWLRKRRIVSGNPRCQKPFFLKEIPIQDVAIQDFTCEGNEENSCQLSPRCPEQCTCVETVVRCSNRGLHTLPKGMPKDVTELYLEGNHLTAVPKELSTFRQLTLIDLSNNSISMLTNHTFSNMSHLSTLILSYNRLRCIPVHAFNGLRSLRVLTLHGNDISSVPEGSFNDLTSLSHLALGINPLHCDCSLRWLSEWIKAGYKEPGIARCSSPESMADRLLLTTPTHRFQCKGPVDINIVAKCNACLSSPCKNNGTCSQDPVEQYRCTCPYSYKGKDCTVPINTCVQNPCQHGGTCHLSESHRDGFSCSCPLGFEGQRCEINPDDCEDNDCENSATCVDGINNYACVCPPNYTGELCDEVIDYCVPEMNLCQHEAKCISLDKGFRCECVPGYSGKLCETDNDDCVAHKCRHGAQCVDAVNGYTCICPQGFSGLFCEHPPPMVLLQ
The assay can be described thus: HTRF competition: d2-labelled rat SLIT3-N binding to human ROBO2 on HEK293 cells; geometric mean, n=3. The protocol:
After incubation, fluorescence at 665 nm and 620 nm was measured on an Envision multilabel plate reader. The HTRF Ratio was calculated as follows: fluorescence at 665 nm/fluorescence at 620 nm×10,000. […] The IC₅₀ for each SLITx-N was determined using an 11-point, 4-fold dilution series with a top concentration of 4000 nM.
(In general: TR-FRET usually uses a lanthanide donor and a delayed reading to cut background.)

B1: ROBO2-Fc 2.2 (Fc fusion)
chain: SRLRQEDFPPRIVEHPSDVIVSKGEPTTLNCKAEGRPTPTIEWYKDGERVETDKDDPRSHRMLLPSGSLFFLRIVHGRRSKPDEGSYVCVARNYLGEAVSRNASLEVALLRDDFRQNPTDVVVAAGEPAILECQPPRGHPEPTIYWKKDKVRIDDKEERISIRGGKLMISNTRKSDAGMYTCVGTNMVGERDSDPAELTVFERGGSGGSEPKSSDKTHTCPPCPAPEAAGAPSVFLFPPKPKDTLMISRTPEVTCVVVDVSHEDPEVKFNWYVDGVEVHNAKTKPREEQYNSTYRVVSVLTVLHQDWLNGKEYKCKVSNKALPAPIEKTISKAKGQPREPQVYTLPPSREEMTKNQVSLTCLVKGFYPSDIAVEWESNGQPENNYKTTPPVLDSDGSFFLYSKLTVDKSRWQQGNVFSCSVMHEALHNHYTQKSLSLSPG
notes: Labelled with Alexa Fluor 647 in the flow cytometry assay; also called ROBO-Fc 2.2; ROBO2-Fc 2.2-AF647
As for B1, the IC50 was determined as 3 nM.

The term IC50 denotes the concentration at which inhibition is half-maximal. A higher IC50 goes with a need for much substance.
